Source: PMC10704371

Target: T1, N-terminal DNA-binding domain (2-241) of S. pombe Fep1, 6xHis-tagged (S. pombe) (UniProt Q10134)
T1 sequence: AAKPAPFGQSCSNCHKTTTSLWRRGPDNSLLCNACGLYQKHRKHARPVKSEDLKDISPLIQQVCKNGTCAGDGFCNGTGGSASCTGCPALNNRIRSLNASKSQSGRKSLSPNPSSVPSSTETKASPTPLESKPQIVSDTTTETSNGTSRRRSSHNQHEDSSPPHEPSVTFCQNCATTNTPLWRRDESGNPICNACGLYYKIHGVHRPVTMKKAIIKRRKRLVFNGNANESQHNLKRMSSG

B1: Schizosaccharomyces pombe monothiol glutaredoxin Grx4, full length, 6xHis-tagged (natural protein)
chain: MSVEITFVEQFQEILQNGKEQIILLNFYAPWAAPCKQMNQVFDQFAKDTKNAVFLKIEAEKFSDIAESFDVNAVPLFVLIHGAKVLARISGANPQKLKAAIDEYIQPLISQISSTNASVETQVNSVQTTNTTSNTSKAPNGLDSELNERLSTLTNAHNVMLFLKGTPSEPACGFSRKLVGLLREQNVQYGFFNILADDSVRQGLKVFSDWPTFPQLYIKGEFVGGLDIVSEMIENGELQEMLPN
  Kex of [2Fe-2S] cluster transfer from [2Fe-2S],Zn-Fep1-DBD to apo-Grx4 (CD-monitored titration, 5 mM GSH): 5.3
  Kex of [2Fe-2S] cluster transfer from [2Fe-2S],Zn-Fep1-DBD to apo-Grx4 added as a 1:1 mixture with apo-Fra2 (CD-monitored titration, 5 mM GSH): 36.1
